Reference: the supplement of paper PMC7125110
± gives the standard error. For some of these results: Fewer inactive variants are shown than the library holds.

B1: glmS ribozyme (parent)
chain: AUAAAAGCGCCAGAACUACAGAAAUGUAGUUGACGAGGAGGAGGUUUAUCGAAUUUUCGGCGGAUGCCUCCAAA

What was measured:
Settings in all cases: with glucosamine-6-phosphate
[1] = variants of: B1; assay: kcat; higher = faster cleavage; RNA array
Method in brief: (§1)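 Weighted Michaelis–Menten fits across concentrations supplied kcat and KM, based on kobs from one- or two-exponential decay fits to normalised per-tile medians. The data came from barcoded ribozyme variants transcribed in situ by E. coli RNA polymerase on sequenced MiSeq chips and tracked at 37 °C by a hybridised Cy3 probe. Glucosamine-6-phosphate (40 μM to 10 mM) in HEPES/KCl/Mg(OAc)2 buffer was flowed in.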

[2] = variants of: B1; assay: KM; higher = weaker cofactor use; RNA array
Method in brief: as §1

[3] = variants of: B1; assay: self-cleavage kobs at 40 uM GlcN6P; higher = faster cleavage; RNA array
Method in brief: as §1

[4] = variants of: B1; assay: self-cleavage kobs at 160 uM GlcN6P; higher = faster cleavage; RNA array
Method in brief: as §1

[5] = variants of: B1; assay: self-cleavage kobs at 640 uM GlcN6P; higher = faster cleavage; RNA array
Method in brief: as §1

[6] = variants of: B1; assay: self-cleavage kobs at 2500 uM GlcN6P; higher = faster cleavage; RNA array
Method in brief: as §1

[7] = variants of: B1; assay: self-cleavage kobs at 10000 uM GlcN6P; higher = faster cleavage; RNA array
Method in brief: as §1

Variant | kcat [1] [s⁻¹] | KM [2] [µM] | self-cleavage kobs at 40 uM GlcN6P [3] [s⁻¹] | self-cleavage kobs at 160 uM GlcN6P [4] [s⁻¹] | self-cleavage kobs at 640 uM GlcN6P [5] [s⁻¹] | self-cleavage kobs at 2500 uM GlcN6P [6] [s⁻¹] | self-cleavage kobs at 10000 uM GlcN6P [7] [s⁻¹]
A6U G43U | < 1e-05 | 6890 ± 1100 | < 1e-05 | < 1e-05 | < 1e-05 | – | –
C11G G32A U69G | 3.08e-05 ± 7e-06 | – | – | – | – | – | –
G41U C71A | 0.000252 ± 2.1e-05 | 604 ± 120 | – | 5.27e-05 ± 9.4e-06 | 0.000128 ± 1.2e-05 | 0.000235 ± 2.8e-05 | 0.000219 ± 2.8e-05
U55G G60U G63A G66C | 1.16e-05 ± 1e-06 | – | – | – | – | < 1e-05 | –
C58U U65C | < 1e-05 | – | – | – | – | < 1e-05 | –
A33C U55C | < 1e-05 | – | < 1e-05 | < 1e-05 | < 1e-05 | – | –
A14U U31C | 0.00342 ± 0.00056 | 1450 ± 340 | 0.00012 ± 1.9e-05 | 0.000327 ± 3.9e-05 | 0.000956 ± 0.00011 | 0.00229 ± 0.00027 | 0.00303 ± 0.0006
G7A G37C U47A | 1.02e-05 ± 2.4e-06 | – | – | < 1e-05 | – | – | –
G37A A39U | 0.00167 ± 0.00028 | 3280 ± 870 | – | 6.13e-05 ± 1.5e-05 | 0.00028 ± 4e-05 | 0.000838 ± 9.2e-05 | 0.00116 ± 0.00015
U30G U56C | 0.00111 ± 0.00035 | – | – | 7.46e-05 ± 1.8e-05 | 0.000359 ± 5.7e-05 | 0.000454 ± 8.9e-05 | 0.00109 ± 0.00017
C10U G60A | 1.02e-05 ± 1.8e-06 | – | < 1e-05 | – | – | – | –
U55G U69A | 0.000144 ± 3.5e-05 | – | 4.44e-05 ± 1.1e-05 | 7.03e-05 ± 9.5e-06 | 0.00015 ± 1.9e-05 | 0.00021 ± 2.3e-05 | 9.83e-05 ± 1.7e-05
C67G U69A | 1.14e-05 ± 5.3e-06 | – | – | – | – | – | –
A52G U69C | 0.000343 ± 3.8e-05 | 425 ± 160 | – | – | 0.000215 ± 4.5e-05 | 0.000269 ± 5.7e-05 | 0.000381 ± 0.00011
U30C G40C | 4.04e-05 ± 5.2e-06 | – | – | – | – | 2.58e-05 ± 1.2e-05 | 3.87e-05 ± 1.2e-05
A39C A64U | 1.4e-05 ± 2.1e-06 | – | – | – | – | – | –
C10G U49A | 1.12e-05 ± 2.4e-06 | – | < 1e-05 | – | < 1e-05 | – | –
U31C U55A | 0.00809 ± 0.0017 | 3270 ± 1100 | 0.000152 ± 2.3e-05 | 0.000289 ± 6.8e-05 | 0.00126 ± 0.00017 | 0.00333 ± 0.00051 | 0.00623 ± 0.00059
G7C G38C | < 1e-05 | – | – | – | – | – | < 1e-05
G35C C68U | < 1e-05 | – | < 1e-05 | < 1e-05 | – | – | –
